What all share (assay): IEDB peptide-MHC binding, purified MHC/competitive/radioactivity; filed as Kd, often an IC50 or EC50 that approximates it; ≥ and ≤ were set here for values at or beyond the usual limits of such assays
The target in experiment [1] is HLA-A*02:02.
Experiment [2] has as its target HLA-A*02:03.
Experiment [3] addresses HLA-A*02:06.
Setting [4] is: source organism: Vaccinia virus WR.
[5] abbreviates: source organism: Mammarenavirus brazilense.
[6] abbreviates: source organism: SARS coronavirus Tor2.
[7] abbreviates: source organism: Mammarenavirus lassaense.

A word on the Kd: it is a measure of binding affinity in units of concentration.

A value given as a limit tells only on which side of the number the result lay.

YIEDELRRA: the equilibrium dissociation constant (Kd) in experiment [1] (setting [4]) was found to be 1760 nM; in experiment [2] (setting [4]), 259 nM; in experiment [3] (setting [4]) it was 1230 nM.

For SNPNLFWAV, the dissociation constant (Kd) in experiment [1] (setting [5]) turned out to be 170 nM; in experiment [2] (setting [5]), 6150 nM; in experiment [3] (setting [5]) it was 34.6 nM.

As for LVIGVAFLAV, the equilibrium dissociation constant (Kd) in experiment [1] (setting [6]) was found to be 2710 nM; in experiment [2] (setting [6]), 22.4 nM; in experiment [3] (setting [6]), 2.6 nM.

As for SILSLETVKM, the dissociation constant (Kd) in experiment [1] (setting [4]) came out at 203 nM; in experiment [2] (setting [4]) it was 455 nM; in experiment [3] (setting [4]) it was 806 nM.

In the case of WLMWFIISIV, the Kd is 246 nM in experiment [1] (setting [6]), 4.72 nM in experiment [2] (setting [6]) and 107 nM in experiment [3] (setting [6]).

Take YQVKTETTI: in experiment [3] (source organism: Dengue virus 4 Philippines/H241/1956), the dissociation constant (Kd) was determined as 26.3 nM.

As to SISSVLTIL, the Kd in experiment [1] (setting [4]) came to 1.25 nM; in experiment [2] (setting [4]) it was 3.98 nM; in experiment [3] (setting [4]), 110 nM.

YIRRNMINKL: the equilibrium dissociation constant (Kd) in experiment [1] (setting [4]) worked out at 820 nM; in experiment [2] (setting [4]) it was 69.6 nM; in experiment [3] (setting [4]) it was 8660 nM.

As for ELLEMKYAL, the dissociation constant (Kd) in experiment [1] (setting [4]) was determined as 952 nM; in experiment [2] (setting [4]) it was 863 nM; in experiment [3] (setting [4]), 6010 nM.

YAVLSEYETM: the dissociation constant Kd in experiment [1] (setting [4]) was found to be 157 nM; in experiment [2] (setting [4]), 9630 nM; in experiment [3] (setting [4]), 1210 nM.

In the case of LALWDSNFFT, the Kd was 11000 nM in experiment [1] (setting [4]), 19900 nM in experiment [2] (setting [4]) and 1250 nM in experiment [3] (setting [4]).

Consider KINPLLDEPL, for which the figures for the Kd in experiment [1] (setting [4]), in experiment [2] (setting [4]) and in experiment [3] (setting [4]) were 53.4 nM, 304 nM and 18.6 nM, respectively.

With KQIMECSRML, the Kd is 54.8 nM in experiment [1] (setting [4]), at least 29600 nM in experiment [2] (setting [4]) and 59.5 nM in experiment [3] (setting [4]).

As to ATFRDMLLNV, the Kd in experiment [1] (setting [4]) was 7.06 nM; in experiment [2] (setting [4]), 0.398 nM; in experiment [3] (setting [4]), 3.03 nM.

On to ETMYLTMKAI, for which the results for the Kd in experiment [1] (setting [4]), in experiment [2] (setting [4]) and in experiment [3] (setting [4]) were 1320 nM, 25.2 nM and 3580 nM, respectively.

Turning to VIADYNYKL, the Kd turned out to be 0.477 nM in experiment [1] (setting [6]), 115 nM in experiment [2] (setting [6]) and 69.1 nM in experiment [3] (setting [6]).

As for NCLSLLLSV, the Kd worked out at 48.7 nM in experiment [1] (setting [7]), 437 nM in experiment [2] (setting [7]) and 630 nM in experiment [3] (setting [7]).

Regarding PIIYSKAGNI, the equilibrium dissociation constant (Kd) in experiment [1] (setting [4]) was 654 nM; in experiment [2] (setting [4]), 139 nM; in experiment [3] (setting [4]), 728 nM.

Turning to ETQSGALEVL, the Kd in experiment [1] (setting [4]) came to 5310 nM; in experiment [2] (setting [4]), 14500 nM; in experiment [3] (setting [4]), 1580 nM.

As to TLLCVLAAL, the figures for the Kd in experiment [1] (setting [6]), in experiment [2] (setting [6]) and in experiment [3] (setting [6]) were 8.1 nM, 10.6 nM and 7.98 nM, respectively.

With LLKETIQKDI, the Kd is 3060 nM in experiment [1] (setting [4]), 782 nM in experiment [2] (setting [4]) and at least 23400 nM in experiment [3] (setting [4]).

For MAFILGIIIT, the Kd in experiment [1] (setting [4]) turned out to be 4680 nM; in experiment [2] (setting [4]), 2830 nM; in experiment [3] (setting [4]) it was 10300 nM.

As to GTIILNKIV, the dissociation constant Kd in experiment [1] (setting [4]) came out at 1190 nM; in experiment [2] (setting [4]) it was 3400 nM; in experiment [3] (setting [4]), 1430 nM.

QLEELEDEL: in experiment [2] (source organism: Homo sapiens), the dissociation constant (Kd) was at least 68400 nM.

With VILPDKIDGL, the results for the Kd in experiment [1] (setting [4]), in experiment [2] (setting [4]) and in experiment [3] (setting [4]) were 8090 nM, 10800 nM and 240 nM, respectively.

Consider SLVSAGSGKV, for which the Kd in experiment [2] (source organism: Dengue virus 3 Martinique/1243/1999) came out at 19.4 nM.

Turning to LMAMDLGEL, the dissociation constant (Kd) in experiment [2] (source organism: Dengue virus 2 Peru/IQT2913/1996) came to 6.78 nM.

As to TLILAPTRVV, the Kd in experiment [2] (source organism: Dengue virus 2 Jamaica/1409/1983) worked out at 42.6 nM.

Regarding YLGHSAGFTA, the dissociation constant Kd amounted to 16.4 nM in experiment [1] (setting [4]), 86.1 nM in experiment [2] (setting [4]) and 144 nM in experiment [3] (setting [4]).

In the case of EATFIDVHI, the equilibrium dissociation constant (Kd) in experiment [1] (setting [4]) came out at 1660 nM; in experiment [2] (setting [4]), 862 nM; in experiment [3] (setting [4]), 3430 nM.

With MQVFFGYFA, the Kd in experiment [1] (setting [6]) was determined as 9.96 nM; in experiment [2] (setting [6]), 193 nM; in experiment [3] (setting [6]), 1.04 nM.

Turning to LLEMKYALI, the values for the Kd in experiment [1] (setting [4]), in experiment [2] (setting [4]) and in experiment [3] (setting [4]) were 354 nM, 135 nM and 14900 nM, respectively.

Consider SITPNNLNKI, for which the figures for the Kd in experiment [1] (setting [4]), in experiment [2] (setting [4]) and in experiment [3] (setting [4]) were 14900 nM, at least 70400 nM and at least 69800 nM, respectively.

In the case of AVTLNRIKI, the results for the dissociation constant Kd in experiment [1] (setting [4]), in experiment [2] (setting [4]) and in experiment [3] (setting [4]) were 10800 nM, 3340 nM and 7610 nM, respectively.

Take NIREGTHVLL: the dissociation constant (Kd) in experiment [1] (setting [4]) was 8880 nM; in experiment [2] (setting [4]) it was 5510 nM; in experiment [3] (setting [4]), at least 34600 nM.

For ALALEQYGI, the figures for the Kd in experiment [1] (setting [4]), in experiment [2] (setting [4]) and in experiment [3] (setting [4]) were 0.695 nM, 40 nM and 548 nM, respectively.

On to IAACAMLLV, for which the results for the dissociation constant Kd in experiment [1] (setting [6]), in experiment [2] (setting [6]) and in experiment [3] (setting [6]) were 320 nM, 387 nM and 131 nM, respectively.

The values are drawn from the Immune Epitope Database (IEDB).
